Experimental data published in paper PMC5595889.

Target: mouse importin α1 lacking the N-terminal importin-β-binding domain (ΔIBB-importin α1) (mouse)
Assay: ITC

In the case of influenza NLS2-K peptide (198-[…]-216), the Kd is reported as 72.4 µM.
